Experimental data: patent publication US20060275828A1 (CENTRE NATIONAL DE LA RECHERCHE SCIENTIFIQUE, published 2006)
Where no end group is shown, it is not given here.

Columns and labels:
[1] = target: fluorescent receptor NK2R-RF1 (construct pCEP4-NK2R-RF1): EGFP fused between the alpha7 signal peptide and the amino-terminal end of the rat NK2R receptor, expressed on HEK 293 cells (Aequorea victoria; rat) (UniProt P16610); assay: displacement of 3H SR 48968 on HEK 293 cells expressing NK2R-RF1, filtration (FIG. 8b)
[2] = target: fluorescent receptor NK2R-RF1 (construct pCEP4-NK2R-RF1): EGFP fused between the alpha7 signal peptide and the amino-terminal end of the rat NK2R receptor, expressed on HEK 293 cells (Aequorea victoria; rat) (UniProt P16610); assay: displacement of 3H SR 48968 on HEK 293 cells expressing NK2R-RF1, filtration
[3] = target: wild-type rat NK2R receptor of tachykinins (construct pCEP4-NK2R), expressed on HEK 293 cells (rat) (UniProt P16610); assay: displacement of 3H SR 48968 on HEK 293 cells expressing wild-type NK2R, filtration
[4] = target: fluorescent receptor NK2R-RF1 (construct pCEP4-NK2R-RF1): EGFP fused between the alpha7 signal peptide and the amino-terminal end of the rat NK2R receptor, expressed on HEK 293 cells (Aequorea victoria; rat) (UniProt P16610); assay: FRET saturation on cells expressing NK2R-RF1, 0 to 256 nM NKA BO I
[5] = target: T1, wild-type rat NK2R receptor of tachykinins (construct pCEP4-NK2R), expressed on HEK 293 cells (rat, UniProt P16610 1-390); assay: displacement of 3H SR 48968 on HEK 293 cells expressing NK2R-WT, filtration (FIG. 8a)
T1 construct: whole, on cells; Stably expressed in HEK 293 cells; also called NK2R-WT; NK2R WT
T1 sequence (looked up): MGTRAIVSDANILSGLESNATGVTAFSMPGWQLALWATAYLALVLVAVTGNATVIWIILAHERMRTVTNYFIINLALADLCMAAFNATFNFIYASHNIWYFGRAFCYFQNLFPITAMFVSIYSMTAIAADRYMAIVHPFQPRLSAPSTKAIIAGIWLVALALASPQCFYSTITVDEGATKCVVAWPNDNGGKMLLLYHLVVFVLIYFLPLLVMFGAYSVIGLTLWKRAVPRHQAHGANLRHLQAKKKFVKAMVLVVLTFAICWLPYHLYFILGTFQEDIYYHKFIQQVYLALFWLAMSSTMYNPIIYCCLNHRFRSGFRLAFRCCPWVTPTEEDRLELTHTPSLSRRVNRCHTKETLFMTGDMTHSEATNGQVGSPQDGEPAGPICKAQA
Experimental: The incubation is carried out for one hour at 4° C. Filtration is carried out at the end of incubation, as described in 3b).

[6] = target: fluorescent receptor NK2R-RF1 (construct pCEP4-NK2R-RF1): EGFP fused between the alpha7 signal peptide and the amino-terminal end of the rat NK2R receptor, expressed on HEK 293 cells (Aequorea victoria; rat) (UniProt P16610); assay: FRET saturation: amplitude of EGFP fluorescence extinction against NKA BO I concentration, cells expressing NK2R-RF1 (FIG. 13)

| Molecule | Ki [1] [nM] | Ki [2] [nM] | Ki [3] [nM] | Kd [4] [nM] | Ki [5] [nM] | Kd [6] [nM] |
| --- | --- | --- | --- | --- | --- | --- |
| neurokinin A (from UniProt P20366 98-107) (peptide) | 2.1 |  |  |  |  |  |
| MEN 10,376 (Bachem) (peptide) |  | 61 | 53 |  |  |  |
| HKTDSFVGLM (peptide, UniProt P20366 98-107, looked up, also: BODIPY 530/550 IA label, site not given here, mature; HPLC-purified reaction product of NKA with BODIPY 530/550 IA; also called NKA BO 1; NKA-Bodipy derivative) [NKA BO I (neurokinin A labeled with BODIPY 530/550 IA)] | 16.1 |  |  | 20 to 30 | 16.1 | 24 |
